{"source": "IntAct's records for PubMed 24880343", "target": "pan3_drome PAN3 (UniProt Q95RR8)", "sequence (Q95RR8 whole entry)": "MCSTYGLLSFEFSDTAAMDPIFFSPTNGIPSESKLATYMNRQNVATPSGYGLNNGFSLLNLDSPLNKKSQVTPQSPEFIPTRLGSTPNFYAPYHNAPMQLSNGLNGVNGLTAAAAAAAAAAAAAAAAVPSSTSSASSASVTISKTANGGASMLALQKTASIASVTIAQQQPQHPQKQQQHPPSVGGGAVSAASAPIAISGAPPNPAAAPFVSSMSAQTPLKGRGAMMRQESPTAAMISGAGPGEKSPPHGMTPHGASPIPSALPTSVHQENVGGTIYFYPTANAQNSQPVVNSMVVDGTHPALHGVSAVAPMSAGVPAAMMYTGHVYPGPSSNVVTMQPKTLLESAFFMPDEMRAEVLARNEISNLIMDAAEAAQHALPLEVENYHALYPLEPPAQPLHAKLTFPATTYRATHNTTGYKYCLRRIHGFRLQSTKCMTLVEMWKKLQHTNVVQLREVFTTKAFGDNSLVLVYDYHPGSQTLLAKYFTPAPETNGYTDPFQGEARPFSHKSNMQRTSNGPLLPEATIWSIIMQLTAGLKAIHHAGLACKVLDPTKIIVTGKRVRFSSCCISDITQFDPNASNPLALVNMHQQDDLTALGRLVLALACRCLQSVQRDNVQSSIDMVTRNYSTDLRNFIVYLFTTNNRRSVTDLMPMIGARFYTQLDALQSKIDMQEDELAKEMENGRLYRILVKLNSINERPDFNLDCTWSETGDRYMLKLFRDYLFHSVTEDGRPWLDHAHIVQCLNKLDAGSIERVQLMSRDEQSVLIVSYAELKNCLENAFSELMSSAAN", "data": [{"substance": "PAN2-PAN3 deadenylation complex catalytic subunit PAN2 (Drosophila melanogaster (Fruit fly)), A1Z7K9 T97R;H102G", "values": [{"measurement": "effect of a mutation on the interaction", "value": "disrupting interaction strength"}]}]}
